Where two headings read alike, the source gives them in different places.
Experiments:
human CD47 (hCD47) [1] = molecular target: T1, human CD47 (hCD47) (human, UniProt Q08722 19-139, limits assumed); experiment: hCD47 binding OD over expression OD
Method: (§1) 30 μl of the collected supernatant was added to the ELISA plates and incubated at 25° C. for 1 hour. After the incubation, goat anti-c-Myc HRP with a dilution ratio of 1:10000 was added to the plate, and TMB was added for color development. The absorbance value at 450 nm was measured using a Varioskan™ LUX plate reader.

human CD47 (hCD47) [2] = molecular target: T1, human CD47 (hCD47); experiment: ELISA, coated hCD47 ECD Fc, supernatant, anti-c-Myc HRP
Method: as §1

mouse CD47 = molecular target: T2, mouse CD47 (mouse, UniProt Q61735 19-140, limits assumed); experiment: ELISA, coated mouse CD47 ECD Fc, supernatant, anti-c-Myc HRP
T2 sequence (looked up): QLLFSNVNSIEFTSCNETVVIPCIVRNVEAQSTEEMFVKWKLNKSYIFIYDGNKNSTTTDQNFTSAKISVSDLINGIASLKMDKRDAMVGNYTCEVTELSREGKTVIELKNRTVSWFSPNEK
Method: 100 μl of the collected supernatant was added to the ELISA plates and incubated at 25° C. for 1 hour. After the incubation, goat anti-c-Myc HRP with a dilution ratio of 1:10000 was added to the plate, and TMB was added for color development. The absorbance value at 450 nm was measured using a Varioskan™ LUX plate reader.

human CD47 (hCD47) [3] = molecular target: T1, human CD47 (hCD47); experiment: blocking ELISA, coated hCD47 ECD Fc, supernatant + biotin-SIRPα ECD His
Method: (§2) 150 μl of the collected supernatant and 20 μl biotin-labeled SIRPα ECD His protein (final concentration: 2.5 μg/ml) were added to the ELISA plates and incubated at 25° C. for 1 hour. After the incubation, avidin HRP (BioLegend, Cat #: 79004) with a dilution ratio of 1:1000 was added to the plate, and TMB was added for color development. The absorbance value at 450 nm was measured using a Varioskan™ LUX plate reader.

human CD47 (hCD47) [4] = molecular target: T1, human CD47 (hCD47); experiment: ELISA, coated hCD47 ECD Fc, supernatant, anti-c-Myc HRP; remark: listed apart in the source
Method: as §1

human CD47 (hCD47) [5] = molecular target: T1, human CD47 (hCD47); experiment: hCD47 binding OD over expression OD; remark: listed apart in the source
Method: as §1

human CD47 (hCD47) [6] = molecular target: T1, human CD47 (hCD47); experiment: blocking ELISA, coated hCD47 ECD Fc, supernatant + biotin-SIRPα ECD His; remark: listed apart in the source
Method: as §2

T1 sequence (Q08722 19-139 limits assumed): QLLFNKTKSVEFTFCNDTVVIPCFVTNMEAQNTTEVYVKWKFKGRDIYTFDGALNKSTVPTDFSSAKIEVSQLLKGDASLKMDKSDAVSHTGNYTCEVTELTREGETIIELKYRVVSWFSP

B1: 4RP13-3-11A (designed binder)
hSIRPα IgV domain mutant: EEELQVIQPDKSVSVAAGESAILHCTVTSLWPVGPIQWFRGAGPARELIYNQKAWPFPRVTTVSESTKRENMDFSISISNITPADAGTYYCVKFRKGSPDTEFKSGAGTELSVRAKPS
notes: tested as bacterial supernatant; also called S-2; hSIRPα-mt3 (IgV domain)
hCD47 binding (B/E) (human CD47 (hCD47) [1]): 1.53 | hCD47 binding (OD) (human CD47 (hCD47) [2]): 1.67 OD | mCD47 binding (OD) (mouse CD47): 0.348 OD | Blocking (OD) (human CD47 (hCD47) [3]): 0.319 OD | Blocking ability (%) (human CD47 (hCD47) [3]): 93.3%

B2: 2R-1-4B (designed binder)
hSIRPα IgV domain mutant: EEELQVIQPDKSVSVAAGESAILHCTVTSLAPVGPIQWFRGAGPARELIYNQKLDSFPRVTTVSESTKRESMDFSISISNITPADAGTYYCVKFRKGSPDTEFKSGAGTELSVRAKPS
notes: tested as bacterial supernatant; also called hSIRPα-mt14 (IgV domain)
hCD47 binding (OD) (human CD47 (hCD47) [4]): 0.946 OD | hCD47 binding (B/E) (human CD47 (hCD47) [5]): 0.77 | Blocking (OD) (human CD47 (hCD47) [6]): 1.36 OD | Blocking ability (%) (human CD47 (hCD47) [6]): 27.9%

B3: 2R-1-7B (designed binder)
hSIRPα IgV domain mutant: EEELQVIQPDKSVSVAAGESAILHCIVTSLIPVGPIQWFRGAGPARELIYNQKILTFPRVTTVSESTKRENYDFSISISNITPADAGTYYCVKFRKGSPDTEFKSGAGTELSVRAKPS
notes: tested as bacterial supernatant; also called hSIRPα-mt7 (IgV domain)
hCD47 binding (OD) (human CD47 (hCD47) [4]): 0.687 OD | hCD47 binding (B/E) (human CD47 (hCD47) [5]): 0.78 | Blocking (OD) (human CD47 (hCD47) [6]): 1.43 OD | Blocking ability (%) (human CD47 (hCD47) [6]): 23.3%

B4: 2R-1-10B (designed binder)
hSIRPα IgV domain mutant: EEELQVIQPDKSVSVAAGESAILHCTVTSLIPVGPIQWFRGAGPARELIYNQKNLIFPRVTTVSESGKRENMDFSISISNITPADAGTYYCVKFRKGSPDTEFKSGAGTELSVRAKPS
notes: tested as bacterial supernatant; also called hSIRPα-mt6 (IgV domain)
hCD47 binding (OD) (human CD47 (hCD47) [4]): 0.51 OD | hCD47 binding (B/E) (human CD47 (hCD47) [5]): 0.46 | Blocking (OD) (human CD47 (hCD47) [6]): 1.37 OD | Blocking ability (%) (human CD47 (hCD47) [6]): 27.2%

B5: 2RP-1-3E (designed binder)
hSIRPα IgV domain mutant: EEELQVIQPDKSVSVAAGESAILTCTVTSLWPVGPIQWFRGAGPARELIYNQKGQNFPRVTTVSESTKRFNMDFSISISNITPADAGTYYCVKFRKGSPDTEFKSGAGTELSVRAKPS
notes: tested as bacterial supernatant; also called S-7; hSIRPα-mt9 (IgV domain)
hCD47 binding (B/E) (human CD47 (hCD47) [1]): 1.61 | hCD47 binding (OD) (human CD47 (hCD47) [2]): 1.72 OD | Blocking (OD) (human CD47 (hCD47) [3]): 0.131 OD | Blocking ability (%) (human CD47 (hCD47) [3]): 99.9%

B6: 4RP6-1-10A (designed binder)
hSIRPα IgV domain mutant: EEELQVIQPDKSVSVAAGESAILHCTVTSLLPVGPIQWFRGAGPARELIYNQKDFLFPRVTTVSESTKRENRDFSISISNITPADAGTYYCVKFRKGSPDTEFKSGAGTELSVRAKPS
notes: tested as bacterial supernatant; also called S-16; hSIRPα-mt13 (IgV domain)
hCD47 binding (B/E) (human CD47 (hCD47) [1]): 2.89 | hCD47 binding (OD) (human CD47 (hCD47) [4]): 1.87 OD | hCD47 binding (OD) (human CD47 (hCD47) [2]): 1.87 OD | mCD47 binding (OD) (mouse CD47): 0.41 OD | Blocking (OD) (human CD47 (hCD47) [3]): 0.45 OD | Blocking ability (%) (human CD47 (hCD47) [3]): 80.1% | hCD47 binding (B/E) (human CD47 (hCD47) [5]): 2.89 | Blocking (OD) (human CD47 (hCD47) [6]): 0.45 OD | Blocking ability (%) (human CD47 (hCD47) [6]): 80.1%

B7: 4RP13-1-2G (designed binder)
hSIRPα IgV domain mutant: EEELQVIQPDKSVSVAAGESAILRCTVTSLWPVGPIQWFRGAGPARELIYNQKAFIFPRVTTVSESTKRGNMDFSISISNITPADAGTYYCVKFRKGSPDTEFKSGAGTELSVRAKPS
notes: tested as bacterial supernatant; also called S-5; hSIRPα-mt4 (IgV domain)
hCD47 binding (B/E) (human CD47 (hCD47) [1]): 2.27 | hCD47 binding (OD) (human CD47 (hCD47) [2]): 1.94 OD | mCD47 binding (OD) (mouse CD47): 0.412 OD | Blocking (OD) (human CD47 (hCD47) [3]): 0.194 OD | Blocking ability (%) (human CD47 (hCD47) [3]): 96.9%

B8: 4RP13-1-7A (designed binder)
hSIRPα IgV domain mutant: EEELQVIQPDKSVSVAAGESAILHCTVTSLKPVGPIQWFRGAGPARELIYNQKRDTFPRVTTVSESTKRENRDFSISISNITPADAGTYYCVKFRKGSPDTEFKSGAGTELSVRAKPS
notes: tested as bacterial supernatant; also called S-19; hSIRPα-mt8 (IgV domain)
hCD47 binding (B/E) (human CD47 (hCD47) [1]): 2.44 | hCD47 binding (OD) (human CD47 (hCD47) [2]): 1.9 OD | mCD47 binding (OD) (mouse CD47): 0.293 OD | Blocking (OD) (human CD47 (hCD47) [3]): 0.215 OD | Blocking ability (%) (human CD47 (hCD47) [3]): 95.8%

B9: 4RP13-3-4D (designed binder)
hSIRPα IgV domain mutant: EEELQVIQPDKSVSVAAGESAILHCTVTSLLPVGPIQWFRGAGPARELIYNQKSKVFPRVTTVSESTKRRNMDFSISISNITPADAGTYYCVKFRKGSPDTEFKSGAGTELSVRAKPS
notes: tested as bacterial supernatant; also called S-11; hSIRPα-mt11 (IgV domain)
hCD47 binding (B/E) (human CD47 (hCD47) [1]): 1.7 | hCD47 binding (OD) (human CD47 (hCD47) [2]): 1.79 OD | Blocking (OD) (human CD47 (hCD47) [3]): 0.229 OD | Blocking ability (%) (human CD47 (hCD47) [3]): 99.8%

B10: 4RP13-3-7B (designed binder)
hSIRPα IgV domain mutant: EEELQVIQPDKSVSVAAGESAILTCTVTSLYPVGPIQWFRGAGPARELIYNQKRQTFPRVTTVSESTKRFNMDFSISISNITPADAGTYYCVKFRKGSPDTEFKSGAGTELSVRAKPS
notes: tested as bacterial supernatant; also called S-28; hSIRPα-mt10 (IgV domain)
hCD47 binding (B/E) (human CD47 (hCD47) [1]): 1.25 | hCD47 binding (OD) (human CD47 (hCD47) [4]): 1.49 OD | hCD47 binding (OD) (human CD47 (hCD47) [2]): 1.49 OD | Blocking (OD) (human CD47 (hCD47) [3]): 0.332 OD | Blocking ability (%) (human CD47 (hCD47) [3]): 92.4% | hCD47 binding (B/E) (human CD47 (hCD47) [5]): 1.25 | Blocking (OD) (human CD47 (hCD47) [6]): 0.332 OD | Blocking ability (%) (human CD47 (hCD47) [6]): 92.4%

B11: 4RP13-3-10B (designed binder)
hSIRPα IgV domain mutant: EEELQVIQPDKSVSVAAGESAILHCTVTSLYPVGPIQWFRGAGPARELIYNQKGRRFPRVTTVSESTKRANMDFSISISNITPADAGTYYCVKFRKGSPDTEFKSGAGTELSVRAKPS
notes: tested as bacterial supernatant; also called S-26; hSIRPα-mt12 (IgV domain)
hCD47 binding (B/E) (human CD47 (hCD47) [1]): 1.33 | hCD47 binding (OD) (human CD47 (hCD47) [2]): 1.65 OD | Blocking (OD) (human CD47 (hCD47) [3]): 0.299 OD | Blocking ability (%) (human CD47 (hCD47) [3]): 94.7%

B12: 4RP13-4-5C (designed binder)
hSIRPα IgV domain mutant: EEELQVIQPDKSVSVAAGESAILNCTVTSLIPVGPIQWFRGAGPARELIYNQKHQTFPRVTTVSEQTKRENRDFSISISNITPADAGTYYCVKFRKGSPDTEFKSGAGTELSVRAKPS
notes: tested as bacterial supernatant; also called S-21; hSIRPα-mt5 (IgV domain)
hCD47 binding (B/E) (human CD47 (hCD47) [1]): 1.65 | hCD47 binding (OD) (human CD47 (hCD47) [2]): 1.86 OD | Blocking (OD) (human CD47 (hCD47) [3]): 0.21 OD | Blocking ability (%) (human CD47 (hCD47) [3]): 96.3%

B13: 4RP13-5-6G (designed binder)
hSIRPα IgV domain mutant: EEELQVIQPDKSVSVAAGESAILRCTVTSLTPVGPIQWFRGAGPARELIYNQKAKQFPRVTTVSESTKRENMIFSISISNITPADAGTYYCVKFRKGSPDTEFKSGAGTELSVRAKPS
notes: tested as bacterial supernatant; also called hSIRPα-mt15 (IgV domain)
hCD47 binding (OD) (human CD47 (hCD47) [4]): 1.65 OD | hCD47 binding (B/E) (human CD47 (hCD47) [5]): 1.01 | Blocking (OD) (human CD47 (hCD47) [6]): 1.11 OD | Blocking ability (%) (human CD47 (hCD47) [6]): 46.3%

Reference: US20250288643A1 (FBD BIOLOGICS, published 2025)
